Experimental findings from paper PMC4161027 (2014) are described below.

The test concerns the target F-actin (polymerized rabbit muscle G-actin) (Oryctolagus cuniculus (Rabbit), UniProt P68135). Kind of test: F-actin co-sedimentation.

B1: GST-tagged ENTH domain of rat epsin 1 (protein)
chain: MSTSSLRRQMKNIVHNYSEAEIKVREATSNDPWGPSSSLMSEIADLTYNVVAFSEIMSMIWKRLNDHGKNWRHVYKAMTLMEYLIKTGSERVSQQCKENMYAVQTLKDFQYVDRDGKDQGVNVREKAKQLVALLRDEDRLREER
As to B1, the binding result was “no binding”.
